Experimental data reported in article PMC13006735 (Research, 2026).

Key:
[1] = target: T1, Sudan virus (SUDV) glycoprotein GP (Sudan ebolavirus, strain  for …, UniProt Q7T9D9); assay: cell-based or functional assay
[2] = target: T1, Sudan virus (SUDV) glycoprotein GP; assay: SPR; conditions: both partners purified

Binder	IC50, neutralisation of SUDV GP pseudovirus (luciferase, Huh7 cells) [1] [µg/mL]	Kd [2] [nM]
ADI-15946 (antibody, V domains shown, also called wild-type ADI-15946; parental antibody) VH: EVQLVESGGGLVKPGGSLRLSCAASGFTFSNAWMSWVRQAPGKGLEWVGRIKSKTDGGTIDYAAPVKGRFTISRDDSKNTVYLQMTSLKTEDTAVYYCTTYTEDMRYFDWLLRGGETFDYWGQGTLVTVSS VL: DIRLTQSPSSLSASVGDRVTITCRASHYISTYLNWYQQKPGKAPKLLIYAASNLQSGVPSRFSGSGFGTDFSLTISSLQPEDFATYHCQQSYSTPGRYTFGQGTKVEIK	9.16	2.24
 (antibody, V domains shown, also called H27Q/S52Y/G66R-LC variant) VH: EVQLVESGGGLVKPGGSLRLSCAASGFTFSNAWMSWVRQAPGKGLEWVGRIKSKTDGGTIDYAAPVKGRFTISRDDSKNTVYLQMTSLKTEDTAVYYCTTYTEDMRYFDWLLRGGETFDYWGQGTLVTVSS VL: DIRLTQSPSSLSASVGDRVTITCRASQYISTYLNWYQQKPGKAPKLLIYAAYNLQSGVPSRFSGSRFGTDFSLTISSLQPEDFATYHCQQSYSTPGRYTFGQGTKVEIK	0.08	–
 (antibody, V domains shown, also called A50Y/S52Y/L54R-LC variant) VH: EVQLVESGGGLVKPGGSLRLSCAASGFTFSNAWMSWVRQAPGKGLEWVGRIKSKTDGGTIDYAAPVKGRFTISRDDSKNTVYLQMTSLKTEDTAVYYCTTYTEDMRYFDWLLRGGETFDYWGQGTLVTVSS VL: DIRLTQSPSSLSASVGDRVTITCRASHYISTYLNWYQQKPGKAPKLLIYYAYNRQSGVPSRFSGSGFGTDFSLTISSLQPEDFATYHCQQSYSTPGRYTFGQGTKVEIK	0.22	–
